Consider one substance from US20230383245A1, “CULTURE MEDIUM COMPOSITION” (NISSAN CHEMICAL CORPORATION, priority 2014, published 2023).

A short description of the data set: Viscosity measurement and state of medium composition (E type viscometer). The format is physicochemical. Here is the method:
Deacylated gellan gum (KELCOGEL CG-LA, manufactured by SANSHO Co., Ltd.) was suspended in pure water to 0.4% (w/v), and dissolved by stirring with heating at 90° C. This aqueous solution was allowed to cool to room temperature with stirring, and sterilized at 121° C. for 20 min in an autoclave. A 2-fold concentration of DMEM/F-12 medium (manufactured by Aldrich, 50 mL) and sterilization water (47.5 mL) were placed in a 300 mL tall beaker with stirring by a homomixer (3000 rpm) at room temperature, aqueous deacylated gellan gum solution (2.5 mL) was added, and the mixture was continuously stirred for 1 min to prepare a deacylated gellan gum medium composition with a final concentration of 0.01%. Medium compositions added with aqueous deacylated gellan gum solution with final concentrations of 0.02, 0.03 and 0.05% (w/v) were similarly prepared. The viscosity of the medium compositions was measured using an E type viscometer (manufactured by Toki Sangyo Co., Ltd., Viscometer TVE-22 L, standard roter 1°34′×R24) under 37° C. condition at 100 rpm for 5 min.
The medium compositions prepared above were subjected to a suspension test of HeLa cell spheres and a viscosity measurement, in the same manner as with the deacylated gellan gum-containing medium. The viscosity of 1.0% (w/v) methylcellulose was measured at 50 rpm due to the measurement range of the apparatus.
In the same manner as in Reference Experimental Example 2, spheres of HeLa cells were formed, and several tens of the spheres were added to each medium (1 mL) prepared above, the mixture was stood still at 37° C. for 1 hr, and the suspended state of the sphere cells was visually observed. […] Furthermore, it was confirmed that addition of an equal amount of the medium to the cell suspension and centrifugation (300 to 400G, for 5 min) thereof result in sedimentation and recovery of the spheres of HeLa cells.
By a method similar to that for the polysaccharide mixture of Reference Experimental Example 9, DMEM/F-12 media containing deacylated gellan gum at a final concentration of 0.005, 0.01% (w/v) and other polysaccharide were prepared. The final concentration of polysaccharide was set to 0.1% (w/v) for xanthan gum, sodium alginate, locust bean gum, 0.2% (w/v) for methylcellulose, and 0.05% (w/v) for K-carageenan and diutan gum. The state of each medium composition and the viscosity measured by a method similar to that in Analysis Example 1 are shown in Tables 11-16.

On to collagen, for which the state entry by setting is: (concentration 0.01 %(w/v) in DMEM/F-12) “liquid”; (concentration 0.05 %(w/v) in DMEM/F-12) “liquid/solid (gel)”; (concentration 0.1 %(w/v) in DMEM/F-12) “solid (gel)”; (concentration 0.2 %(w/v) in DMEM/F-12) “solid (gel)”. Under “concentration 0.01 %(w/v) in DMEM/F-12, 37° C., 100 rpm”, this substance had a viscosity of 1.18 mPa · s.
